In data set [1] the test system is HeLa cells. The data set is described as follows: G-CSF modified mRNA transfected in HeLa cells, G-CSF ELISA. To be noted: HeLa cells, ELISA. Type of data set: cell-based, human. Summed up: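 G-CSF ELISA readout after 250 ng of chemically modified human G-CSF mRNA (transcribed by mutant T7 polymerase) was added to rabbit reticulocyte lysate or transfected in vitro into HeLa cells.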
(In an ELISA, binding on a coated surface is turned into a signal by an enzyme label.)

In data set [2] the test system is tumor necrosis factor-alpha (TNF-alpha). The data set is described as follows: 2′Fluoro chemistries in PBMC: TNF-alpha production by ELISA. Type of data set: cell-based, human. To be noted: G-CSF modified mRNA.
For data set [3], the system named is interferon-alpha (IFN-alpha). The data set is described as follows: 2′Fluoro chemistries in PBMC: IFN-alpha production by ELISA. Type of data set: cell-based, human. The following applies: G-CSF modified mRNA.
Data set [4] deals with tumor necrosis factor alpha (TNF-α). The data set is described as follows: In vitro screening in PBMC: tumor necrosis factor alpha induction by ELISA. Type of data set: cell-based, human. Summed up: (§1)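 After harvest, the medium above the cells is stored frozen; later, ELISA quantifies G-CSF expression plus IFN-α and TNF-α levels.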
In data set [5] the test system is rabbit reticulysates. Put plainly: G-CSF modified mRNA in rabbit reticulysates, G-CSF ELISA. Type of data set: biochemical. To be noted: 250 ng of modified mRNA, listed as 5-methylcytosine/N1-methylpseudouridine. On the procedure:
To assess the activity of all our different chemical modifications in the context of a second open reading frame, we replicated experiments previously conducted using luciferase mRNA, with human G-CSF mRNA. […] The mutant T7 polymerase was obtained commercially (Durascribe® T7 Transcription kit (Cat. No. DS010925) (Epicentre®, Madison, Wis.).
The modified RNA in Tables 27 and 28 were transfected in vitro in HeLa cells or added to rabbit reticulysates (250 ng of modified mRNA) as indicated. […] In Table 27, “NT” means not tested.

For data set [6], the system named is interferon-alpha (IFN-α). Put plainly: In vitro screening in PBMC: interferon-alpha induction by ELISA. Type of data set: cell-based, human. Summed up:
as §1

Data set [7] relates to peripheral blood mononuclear cells (PBMC). The data set is described as follows: In vitro screening in PBMC: G-CSF protein expression by ELISA. Type of data set: cell-based, human. Summed up: as §1
[8] abbreviates: listed as 5-methylcytidien/N1-methylpseudouridine.
Where [9] appears, read: listed as 5-methylcytidine/N1-methylpseudouridine.
Where [10] appears, read: PBMC Donor 1, 500 ng G-CSF mRNA.
[11] abbreviates: PBMC Donor 2, 500 ng G-CSF mRNA.
Where [12] appears, read: PBMC Donor 2, 500 ng G-CSF mRNA, listed as 5-methylcytosine and N1-methylpseudouridine (2nd set).
Setting [13] is: PBMC Donor 2, 500 ng G-CSF mRNA, listed as 5-methylcytosine and N1-methylpseudouridine (4th set).
[14] abbreviates: PBMC Donor 3, 500 ng G-CSF mRNA.
[15] abbreviates: PBMC Donor 3, 500 ng G-CSF mRNA, listed as 5-methylcytosine and N1-methylpseudouridine (2nd set).
Setting [16] is: PBMC Donor 3, 500 ng G-CSF mRNA, listed as 5-methylcytosine and N1-methylpseudouridine (4th set).

Where “and” joins values, the source holds several entries; their conditions need not be identical. Equal values may be shown once.

B1: 5-methylcytosine and N1-methyl-pseudouridine (1^st set): G-CSF mRNA (SEQ ID NO: 408) fully modified with 5-methylcytosine and N1-methylpseudouridine; repeated sets/tests (nucleic acid)
chain: GGGAAAUAAGAGAGAAAAGAAGAGUAAGAAGAAAUAUAAGAGCCACCAUGGCCGGUCCCGCGACCCAAAGCCCCAUGAAACUUAUGGCCCUGCAGUUGCUGCUUUGGCACUCGGCCCUCUGGACAGUCCAAGAAGCGACUCCUCUCGGACCUGCCUCAUCGUUGCCGCAGUCAUUCCUUUUGAAGUGUCUGGAGCAGGUGCGAAAGAUUCAGGGCGAUGGAGCCGCACUCCAAGAGAAGCUCUGCGCGACAUACAAACUUUGCCAUCCCGAGGAGCUCGUACUGCUCGGGCACAGCUUGGGGAUUCCCUGGGCUCCUCUCUCGUCCUGUCCGUCGCAGGCUUUGCAGUUGGCAGGGUGCCUUUCCCAGCUCCACUCCGGUUUGUUCUUGUAUCAGGGACUGCUGCAAGCCCUUGAGGGAAUCUCGCCAGAAUUGGGCCCGACGCUGGACACGUUGCAGCUCGACGUGGCGGAUUUCGCAACAACCAUCUGGCAGCAGAUGGAGGAACUGGGGAUGGCACCCGCGCUGCAGCCCACGCAGGGGGCAAUGCCGGCCUUUGCGUCCGCGUUUCAGCGCAGGGCGGGUGGAGUCCUCGUAGCGAGCCACCUUCAAUCAUUUUUGGAAGUCUCGUACCGGGUGCUGAGACAUCUUGCGCAGCCGUGAAGCGCUGCCUUCUGCGGGGCUUGCCUUCUGGCCAUGCCCUUCUUCUCUCCCUUGCACCUGUACCUCUUGGUCUUUGAAUAAAGCCUGAGUAGGAAG
modifications: 5-methylcytosine/N1-methylpseudouridine modified; Description of Artificial Sequence: Synthetic Transcript Sequence
notes: repeated sets/tests
Take B1: the “G-CSF protein (pg/ml) HeLa cells” value is 1,106,591 pg/ml in data set [1] (G-CSF mRNA, listed as 5-methylcytosine/N1-methylpseudouridine, Control); 1,534,318 pg/ml in data set [1] (G-CSF mRNA, listed as 5-methylcytosine/N1-methylpseudouridine, Test A); 1,568,636 pg/ml in data set [1] (G-CSF mRNA, listed as 5-methylcytosine/N1-methylpseudouridine, Test B); 1,168,864 pg/ml in data set [1] (G-CSF mRNA, listed as 5-methylcytosine/N1-methylpseudouridine, Test D); 747,045 pg/ml and 689,091 pg/ml in data set [1] (combination chemistries, listed as 5-methylcytidine/N1-methylpseudouridine); 1,017,727 pg/ml in data set [1] (combination chemistries, listed as 5-methylcytosine/N1-methylpseudouridine). The “G-CSF protein (pg/ml) HeLa cells” value is reported as 848,409 pg/ml in data set [1] (combination chemistries, listed as 5-methylcytosine/N1-methylpseudouridine, Control 1) and 581,818 pg/ml in data set [1] (combination chemistries, listed as 5-methylcytosine/N1-methylpseudouridine, Control 2). The “TNF-alpha: 2 Donor Average” value in data set [2] (setting [8]) came to 3 pg/mL; in data set [2] (setting [9]) it was 280 pg/mL. Besides, the “IFN-alpha: 3 Donor Average” value in data set [3] (setting [8]) was found to be 35 pg/mL; in data set [3] (setting [9]), 31 pg/mL. Moreover, the “TNF-α Expression” value in data set [4] (setting [10]) turned out to be 54 pg/mL; in data set [4] (PBMC Donor 1, 500 ng G-CSF mRNA, listed as 5-methylcytosine and N1-methylpseudouridine (2nd set)), 54 pg/mL; in data set [4] (PBMC Donor 1, 500 ng G-CSF mRNA, listed as 5-methylcytosine and N1-methylpseudouridine (4th set)) it was 36 pg/mL; in data set [4] (setting [11]), 79 pg/mL; in data set [4] (setting [12]), 97 pg/mL; in data set [4] (setting [13]), 14 pg/mL. Besides, the “TNF-α Expression” value is 126 pg/mL in data set [4] (setting [14]), 149 pg/mL in data set [4] (setting [15]) and 13 pg/mL in data set [4] (setting [16]). Further, the “G-CSF protein (pg/ml) Rabbit reticulysates cells” value in data set [5] (Test A) is on record as 110,500 pg/ml; in data set [5] (Test B), 76,750 pg/ml; in data set [5] (Test D), 97,125 pg/ml. Besides, the “IFN-α Expression” value in data set [6] (setting [10]) stood at 0 pg/mL; in data set [6] (setting [11]), 60 pg/mL; in data set [6] (setting [12]), 66 pg/mL; in data set [6] (setting [13]), 0 pg/mL; in data set [6] (setting [14]), 136 pg/mL; in data set [6] (setting [15]), 140 pg/mL. For the same molecule, the “IFN-α Expression” value in data set [6] (setting [16]) was determined as 0 pg/mL. For the same molecule, the “G-CSF Protein Expression” value in data set [7] (setting [10]) is recorded as 10,232 pg/ml; in data set [7] (PBMC Donor 1, 500 ng G-CSF mRNA, listed as 5-methylcytosine and N1-methyl-pseudouridine (2nd set)), 9,564 pg/ml; in data set [7] (PBMC Donor 1, 500 ng G-CSF mRNA, listed as 5-methylcytosine and N1-methyl-pseudouridine (4th set)) it was 9,505 pg/ml; in data set [7] (setting [11]) it was 7,245 pg/ml; in data set [7] (PBMC Donor 2, 500 ng G-CSF mRNA, listed as 5-methylcytosine and N1-methyl-pseudouridine (2nd set)), 8,509 pg/ml; in data set [7] (PBMC Donor 2, 500 ng G-CSF mRNA, listed as 5-methylcytosine and N1-methyl-pseudouridine (4th set)), 6,927 pg/ml. In addition, the “G-CSF Protein Expression” value is listed as 6,214 pg/ml in data set [7] (setting [14]); 7,141 pg/ml in data set [7] (PBMC Donor 3, 500 ng G-CSF mRNA, listed as 5-methylcytosine and N1-methyl-pseudouridine (2nd set)); 5,405 pg/ml in data set [7] (PBMC Donor 3, 500 ng G-CSF mRNA, listed as 5-methylcytosine and N1-methyl-pseudouridine (4th set)).

B2: N4-acetylcytidine/2-thiouridine: G-CSF mRNA (SEQ ID NO: 408) fully modified with the named combination (nucleic acid)
chain: GGGAAAUAAGAGAGAAAAGAAGAGUAAGAAGAAAUAUAAGAGCCACCAUGGCCGGUCCCGCGACCCAAAGCCCCAUGAAACUUAUGGCCCUGCAGUUGCUGCUUUGGCACUCGGCCCUCUGGACAGUCCAAGAAGCGACUCCUCUCGGACCUGCCUCAUCGUUGCCGCAGUCAUUCCUUUUGAAGUGUCUGGAGCAGGUGCGAAAGAUUCAGGGCGAUGGAGCCGCACUCCAAGAGAAGCUCUGCGCGACAUACAAACUUUGCCAUCCCGAGGAGCUCGUACUGCUCGGGCACAGCUUGGGGAUUCCCUGGGCUCCUCUCUCGUCCUGUCCGUCGCAGGCUUUGCAGUUGGCAGGGUGCCUUUCCCAGCUCCACUCCGGUUUGUUCUUGUAUCAGGGACUGCUGCAAGCCCUUGAGGGAAUCUCGCCAGAAUUGGGCCCGACGCUGGACACGUUGCAGCUCGACGUGGCGGAUUUCGCAACAACCAUCUGGCAGCAGAUGGAGGAACUGGGGAUGGCACCCGCGCUGCAGCCCACGCAGGGGGCAAUGCCGGCCUUUGCGUCCGCGUUUCAGCGCAGGGCGGGUGGAGUCCUCGUAGCGAGCCACCUUCAAUCAUUUUUGGAAGUCUCGUACCGGGUGCUGAGACAUCUUGCGCAGCCGUGAAGCGCUGCCUUCUGCGGGGCUUGCCUUCUGGCCAUGCCCUUCUUCUCUCCCUUGCACCUGUACCUCUUGGUCUUUGAAUAAAGCCUGAGUAGGAAG
modifications: N4-acetylcytidine/2-thiouridine modified; Description of Artificial Sequence: Synthetic Transcript Sequence
Turning to B2, the “G-CSF protein (pg/ml) HeLa cells” value in data set [1] (combination chemistries) was 46,136 pg/ml. In addition, the “TNF-alpha: 2 Donor Average” value in data set [2] amounted to 285 pg/mL. Besides, the “IFN-alpha: 3 Donor Average” value in data set [3] came out at 0 pg/mL.

Values taken from US20180291335A1, “MODIFIED POLYNUCLEOTIDES FOR ALTERING CELL PHENOTYPE” (ModernaTX, Inc., priority 2012, published 2018).
